This series deals with the molecule itself. Kind of series: gel filtration and gel analysis with and without DTT (self-association).

We go through one protein from patent publication US20120207777A1 (Novartis, published 2012).

B1: Recombinant His-tagged AcfD (orf3526) from strain IHE3034 without a leader peptide (other)
chain: CDGGGSGSSSDTPSVDSGSGTLPEVKPDPTPTPEPTPEPTPDPEPTPDPTPDPEPTPEPEPEPVPTKTGYLTLGGSQRVTGATCNGESSDGFTFTPGNTVSCVVGSTTIATFNTQSEAARSLRAVDKVSFSLEDAQELANSENKKTNAISLVTSSDSCPADAEQLCLTFSSVVDRARFEKLYKQIDLATDNFSKLVNEEVENNAATDKAPSTHTSTVVPVTTEGTKPDLNASFVSANAEQFYQYQPTEIILSEGQLVDSLGNGVAGVDYYTNSGRGVTDENGKFSFSWGETISFGIDTFELGSVRGNKSTIALTELGDEVRGANIDQLIHRYSTTGQNNTRVVPDDVRKVFAEYPNVINEIINLSLSNGATLDEGDQNVVLPNEFIEQFKTGQAKEIDTAICAKTDGCNEARWFSLTTRNVNDGQIQGVINKLWGVDTNYQSVSKFHVFHDSTNFYGSTGNARGQAVVNISNSAFPILMARNDKNYWLAFGEKRAWDKNELAYITEAPSIVQPENVTRDTATFNLPFISLGQVGEGKLMVIGNPHYNSILRCPNGYSWGGGVNSKGECTLSGDSDDMKHFMQNVLRYLSNDIWQPNTKSIMTVGTNLENVYFKKAGQVLGNSAPFAFHEDFTGITVKQLTSYGDLNPEEIPLLILNGFEYVTQWSGDPYAVPLRADTSKPKLTQQDVTDLIAYLNKGGSVLIMENVMSNLKEESASSFVRLLDAAGLSMALNKSVVNNDPQGYPDRVRQRRATGIWVYERYPAADGAQPPYTIDPNTGEVTWKYQQDNKPDDKPKLEVASWQEEVEGKQVTRYAFIDEAEYTTEESLEAAKAKIFEKFPGLQECKDSTYHYEINCLERRPGTDVPVTGGMYVPRYTQLNLDADTAKAMVQAADLGTNIQRLYQHELYFRTKGSKGERLNSVDLERLYQNMSVWLWNDTKYRYEEGKEDELGFKTFTEFLNCYANDAYAGGTKCSADLKKSLVDNNMIYGDGSSKAGMMNPSYPLNYMEKPLTRLMLGRSWWDLNIKVDVEKYPGSVSAKGESVTENISLYSNPTKWFAGNMQSTGLWAPAQQDVTIKSSASVPVTVTVALADDLTGREKHEVALNRPPRVTKTYTLEANGEVTFKVPYGGLIYIKGDSKDDVSANFTFTGVVKAPFYKDGEWKNDLDSPAPLGELESASFVYTTPKKNLEASNFTGGVAEFAKDLDTFASSMNDFYGRNDEDGKHRMFTYKNLTGHKHRFTNDVQISIGDAHSGYPVMNSSFSTNSTTLPTTPLNDWLIWHEVGHNAAETPLNVPGATEVANNVLALYMQDRYLGKMNRVADDITVAPEYLDESNGQAWARGGAGDRLLMYAQLKEWAEENFDIKQWYPDGELPKFYSDRKGMKGWNLFQLMHRKARGDDVGNSTFGGKNYCAESNGNAADTLMLCASWVAQADLSEFFKKWNPGASAYQLPGATEMSFQGGVSSSAYSTLASLKLPKPEKGPETINKVTEHKMSAE
notes: Expressed without the leader peptide; also called 3526 (his tag, leader peptide removed); not shown: His tag
Take B1: the binding result is listed as “binds”.
